Results: patent publication US20120135923A1 (IPSEN PHARMA S A S, published 2012)
Where “and” joins values, the source holds several entries; their conditions need not be identical. Identical values can stand only once. Bridge positions count the residues as written; N and C are the ends. Square brackets hold non-standard residues; d marks the D form. d2Nal = N[C@H](Cc1ccc2ccccc2c1)C(=O)O; hCha = N[C@@H](CCC1CCCCC1)C(=O)O; dChg = N[C@@H](C(=O)O)C1CCCCC1; dTle = CC(C)(C)[C@@H](N)C(=O)O; Nle = CCCC[C@H](N)C(=O)O; Ava = NCCCCC(=O)O; GABA = NCCCC(=O)O; βAla = NCCC(=O)O

B1: Ac-hCha-c(Asp-His-D-Phe-Arg-Trp-Gaba-Lys)-NH2 (peptide)
peptide: Ac-[hCha]DH[dF]RW[GABA]K-NH2
modifications: lactam 2-8
SMILES: CC(=O)N[C@@H](CCC1CCCCC1)C(=O)N[C@H]1CC(=O)NCCCC[C@@H](C(N)=O)NC(=O)CCCNC(=O)[C@H](Cc2c[nH]c3ccccc23)NC(=O)[C@H](CCCNC(=N)N)NC(=O)[C@@H](Cc2ccccc2)NC(=O)[C@H](Cc2c[nH]cn2)NC1=O
B2: Ac-Nle-c(Asp-His-D-Phe-Arg-Trp-β-Ala-Lys)-NH2 (peptide)
peptide: Ac-[Nle]DH[dF]RW[βAla]K-NH2
modifications: lactam 2-8
SMILES: CCCC[C@H](NC(C)=O)C(=O)N[C@H]1CC(=O)NCCCC[C@@H](C(N)=O)NC(=O)CCNC(=O)[C@H](Cc2c[nH]c3ccccc23)NC(=O)[C@H](CCCNC(=N)N)NC(=O)[C@@H](Cc2ccccc2)NC(=O)[C@H](Cc2c[nH]cn2)NC1=O
B3: Ac-Nle-c(Cys-D-Ala-His-D-Phe-Arg-Trp-Apn-Cys)-NH2 (peptide)
peptide: Ac-[Nle]C[dA]H[dF]RW[Ava]C-NH2
modifications: disulfide 2-9
SMILES: CCCC[C@H](NC(C)=O)C(=O)N[C@H]1CSSC[C@@H](C(N)=O)NC(=O)CCCCNC(=O)[C@H](Cc2c[nH]c3ccccc23)NC(=O)[C@H](CCCNC(=N)N)NC(=O)[C@@H](Cc2ccccc2)NC(=O)[C@H](Cc2c[nH]cn2)NC(=O)[C@@H](C)NC1=O
B4: Ac-c(Cys-Glu-His-D-2-Nal-Arg-Trp-Ala-Cys)-Pro-Pro-Lys-Asp-NH2 (peptide)
peptide: Ac-CEH[d2Nal]RWACPPKD-NH2
modifications: disulfide 1-8
SMILES: CC(=O)N[C@H]1CSSC[C@@H](C(=O)N2CCC[C@H]2C(=O)N2CCC[C@H]2C(=O)N[C@@H](CCCCN)C(=O)N[C@@H](CC(=O)O)C(N)=O)NC(=O)[C@H](C)NC(=O)[C@H](Cc2c[nH]c3ccccc23)NC(=O)[C@H](CCCNC(=N)N)NC(=O)[C@@H](Cc2ccc3ccccc3c2)NC(=O)[C@H](Cc2c[nH]cn2)NC(=O)[C@H](CCC(=O)O)NC1=O

The binders below were run against T1, hMC5-R (human, UniProt P33032 1-325) (assay: competition with [125I]-NDP-α-MSH, CHO-K1 membranes).
T1 construct: whole, on cells; Assayed as membranes of CHO-K1 cells expressing the receptor; also called hMC-R receptor subtype 5; melanocortin-5 receptor (MC5-R)
Procedure: (§1) Cellular membranes used for the in vitro receptor binding assays were obtained from transgenic CHO-K1 cells stably expressing hMC-R receptor subtypes 1, 3, 4 or 5. […] The pellets were resuspended in the same buffer and centrifuged at 50,000 g for 10 minutes at approximately 4° C. The washed pellets containing the cellular membranes were stored at approximately −80° C.
(§2) Competitive inhibition of [¹²⁵I](Tyr²)-(Nle⁴-D-Phe⁷)α-MSH ([¹²⁵I]-NDP-α-MSH, Amersham Biosciences®) binding was carried out in polypropylene 96 well plates. Cell membranes (1-10 μg protein/well) prepared as described above were incubated in 50 mM Tris-HCl at pH 7.4 containing 0.2% bovine serum albumin (BSA), 5 mM MgCl₂, 1 mM CaCl₂ and 0.1 mg/mL bacitracin, with increasing concentrations of the test compound and 0.1-0.3 nM […] for approximately 90-120 minutes at approximately 37° C. Bound [¹²⁵I]-NDP-α-MSH ligand was separated from free [¹²⁵I]-NDP-α-MSH by filtration through GF/C glass fiber filter plates (Unifilter®; Packard) presoaked with 0.1% (w/v) polyethylenimine (PEI), using a Packard Filtermate® harvester. Filters were washed three times with 50 mM Tris-HCl at pH 7.4 at a temperature of approximately 0-4° C. and then assayed for radioactivity using a Packard Topcount® scintillation counter. Binding data were analyzed by computer-assisted non-linear regression analysis (XL fit; IDBS).

T1 sequence (P33032 whole entry): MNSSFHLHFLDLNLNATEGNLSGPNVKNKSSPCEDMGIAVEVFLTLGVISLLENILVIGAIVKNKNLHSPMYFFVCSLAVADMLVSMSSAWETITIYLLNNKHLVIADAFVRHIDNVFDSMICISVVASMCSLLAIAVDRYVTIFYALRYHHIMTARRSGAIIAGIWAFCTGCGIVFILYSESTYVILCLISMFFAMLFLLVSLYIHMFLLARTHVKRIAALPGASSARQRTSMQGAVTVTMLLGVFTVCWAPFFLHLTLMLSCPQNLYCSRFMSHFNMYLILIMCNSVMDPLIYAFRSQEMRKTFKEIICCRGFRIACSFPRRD

Ki	Binder
783 nM	Ac-RDH[dF]RWAK-NH2 (lactam 2-8) [Ac-Arg-c(Asp-His-D-Phe-Arg-Trp-Ala-Lys)-NH2]
747 nM	B1
164 nM	Ac-[dChg]DH[dF]RW[GABA]K-NH2 (lactam 2-8) [Ac-D-Chg-c(Asp-His-D-Phe-Arg-Trp-Gaba-Lys)-NH2]
956 nM and 358 nM	Ac-[Nle]C[dA]H[dF]RW[GABA]C-NH2 (disulfide 2-9) [Ac-Nle-c(Cys-D-Ala-His-D-Phe-Arg-Trp-Gaba-Cys)-NH2]
766 nM and 496 nM	Ac-[Nle]C[dA]H[dF]RW[βAla]C-NH2 (disulfide 2-9) [Ac-Nle-c(Cys-D-Ala-His-D-Phe-Arg-Trp-β-Ala-Cys)-NH2]
40 nM	Ac-[Nle]C[dTle]H[dF]RWC-NH2 (disulfide 2-8) [Ac-Nle-c(Cys-D-Tle-His-D-Phe-Arg-Trp-Cys)-NH2]
10.9 nM	B2
859 nM	B3

What follows are binders tested against T2, hMC4-R (human, UniProt P32245 1-332) in the same assay as above.
T2 construct: whole, on cells; Assayed as membranes of CHO-K1 cells expressing the receptor; also called hMC-R receptor subtype 4; melanocortin-4 (MC4-R)
Procedure: as §1, §2

T2 sequence (P32245 whole entry): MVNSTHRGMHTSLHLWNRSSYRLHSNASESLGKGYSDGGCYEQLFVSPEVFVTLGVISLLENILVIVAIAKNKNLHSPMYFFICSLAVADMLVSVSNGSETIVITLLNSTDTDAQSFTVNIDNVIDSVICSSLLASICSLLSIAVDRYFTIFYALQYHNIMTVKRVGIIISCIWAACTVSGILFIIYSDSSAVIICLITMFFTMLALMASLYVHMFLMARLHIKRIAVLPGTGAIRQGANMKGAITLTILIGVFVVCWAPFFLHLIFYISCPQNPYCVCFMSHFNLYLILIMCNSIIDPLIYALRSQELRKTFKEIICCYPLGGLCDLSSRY

Ki	Binder
1.01 nM	Ac-RDH[dF]RWAK-NH2 (lactam 2-8) [Ac-Arg-c(Asp-His-D-Phe-Arg-Trp-Ala-Lys)-NH2]
56 nM	B1
2.99 nM	Ac-[dChg]DH[dF]RW[GABA]K-NH2 (lactam 2-8) [Ac-D-Chg-c(Asp-His-D-Phe-Arg-Trp-Gaba-Lys)-NH2]
3.76 nM and 3.12 nM	Ac-[Nle]C[dA]H[dF]RW[GABA]C-NH2 (disulfide 2-9) [Ac-Nle-c(Cys-D-Ala-His-D-Phe-Arg-Trp-Gaba-Cys)-NH2]
5.55 nM	Ac-[Nle]C[dA]H[dF]RW[βAla]C-NH2 (disulfide 2-9) [Ac-Nle-c(Cys-D-Ala-His-D-Phe-Arg-Trp-β-Ala-Cys)-NH2]
11.2 nM	Ac-[Nle]C[dTle]H[dF]RWC-NH2 (disulfide 2-8) [Ac-Nle-c(Cys-D-Tle-His-D-Phe-Arg-Trp-Cys)-NH2]
0.617 nM	B2
7.58 nM	B3

These binders were tested against T3, hMC3-R (human, UniProt P41968 1-323) in the same assay as above.
T3 construct: whole, on cells; Assayed as membranes of CHO-K1 cells expressing the receptor; also called hMC-R receptor subtype 3; melacortin-3 (MC3-R)
Procedure: as §1, §2

T3 sequence (P41968 whole entry): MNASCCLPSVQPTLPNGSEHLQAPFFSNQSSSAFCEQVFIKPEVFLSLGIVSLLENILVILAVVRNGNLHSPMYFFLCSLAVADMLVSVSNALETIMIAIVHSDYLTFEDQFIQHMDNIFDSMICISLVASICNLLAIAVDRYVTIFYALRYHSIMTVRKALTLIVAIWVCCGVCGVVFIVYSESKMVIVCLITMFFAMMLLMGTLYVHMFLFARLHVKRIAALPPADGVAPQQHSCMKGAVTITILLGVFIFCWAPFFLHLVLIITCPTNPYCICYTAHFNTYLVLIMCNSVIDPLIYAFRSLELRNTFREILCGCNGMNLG

Ki	Binder
20.7 nM	Ac-RDH[dF]RWAK-NH2 (lactam 2-8) [Ac-Arg-c(Asp-His-D-Phe-Arg-Trp-Ala-Lys)-NH2]
93.5 nM	B1
14.5 nM	Ac-[dChg]DH[dF]RW[GABA]K-NH2 (lactam 2-8) [Ac-D-Chg-c(Asp-His-D-Phe-Arg-Trp-Gaba-Lys)-NH2]
184 nM and 169 nM	Ac-[Nle]C[dA]H[dF]RW[GABA]C-NH2 (disulfide 2-9) [Ac-Nle-c(Cys-D-Ala-His-D-Phe-Arg-Trp-Gaba-Cys)-NH2]
287 nM and 227 nM	Ac-[Nle]C[dA]H[dF]RW[βAla]C-NH2 (disulfide 2-9) [Ac-Nle-c(Cys-D-Ala-His-D-Phe-Arg-Trp-β-Ala-Cys)-NH2]
85.8 nM	Ac-[Nle]C[dTle]H[dF]RWC-NH2 (disulfide 2-8) [Ac-Nle-c(Cys-D-Tle-His-D-Phe-Arg-Trp-Cys)-NH2]
9320 nM	B2
228 nM	B3

What follows are binders tested against T4, hMC1-R (human, UniProt Q01726 1-317) in the same assay as above.
T4 construct: whole, on cells; Assayed as membranes of CHO-K1 cells expressing the receptor; also called hMC-R receptor subtype 1; melanocyte-specific receptor (MC1-R)
Procedure: as §1, §2

T4 sequence (Q01726 whole entry): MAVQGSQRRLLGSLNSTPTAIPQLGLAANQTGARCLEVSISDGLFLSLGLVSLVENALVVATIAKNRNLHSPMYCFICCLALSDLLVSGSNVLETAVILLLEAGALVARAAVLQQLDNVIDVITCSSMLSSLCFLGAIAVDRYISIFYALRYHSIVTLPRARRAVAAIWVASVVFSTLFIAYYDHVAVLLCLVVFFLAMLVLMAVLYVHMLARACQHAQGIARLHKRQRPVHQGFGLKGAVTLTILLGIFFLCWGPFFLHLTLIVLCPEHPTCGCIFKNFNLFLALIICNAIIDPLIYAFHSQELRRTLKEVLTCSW

Ki	Binder
0.68 nM	Ac-RDH[dF]RWAK-NH2 (lactam 2-8) [Ac-Arg-c(Asp-His-D-Phe-Arg-Trp-Ala-Lys)-NH2]
0.721 nM	B1
0.227 nM	Ac-[dChg]DH[dF]RW[GABA]K-NH2 (lactam 2-8) [Ac-D-Chg-c(Asp-His-D-Phe-Arg-Trp-Gaba-Lys)-NH2]
0.848 nM and 0.536 nM	Ac-[Nle]C[dA]H[dF]RW[GABA]C-NH2 (disulfide 2-9) [Ac-Nle-c(Cys-D-Ala-His-D-Phe-Arg-Trp-Gaba-Cys)-NH2]
0.995 nM and 1 nM	Ac-[Nle]C[dA]H[dF]RW[βAla]C-NH2 (disulfide 2-9) [Ac-Nle-c(Cys-D-Ala-His-D-Phe-Arg-Trp-β-Ala-Cys)-NH2]
12 nM	Ac-[Nle]C[dTle]H[dF]RWC-NH2 (disulfide 2-8) [Ac-Nle-c(Cys-D-Tle-His-D-Phe-Arg-Trp-Cys)-NH2]
0.0996 nM	B2
1.1 nM	B3

These binders were tested against T5, human melanocortin receptor subtype 5 (hMC5-R) (human, UniProt P33032 1-325) (assay: [125I]-NDP-α-MSH competition, membranes).
T5 construct: whole, on cells; membranes of CHO-K1 cells
Procedure: as §1, §2

T5 sequence (P33032 whole entry): as the sequence (P33032 whole entry) above

Ki [nM]	Binder
218	B4

Each binder was assayed against T6, human melanocortin receptor subtype 3 (hMC3-R) (human, UniProt P41968 1-323) (assay: [125I]-NDP-α-MSH competition, membranes).
T6 construct: whole, on cells; membranes of CHO-K1 cells
Procedure: as §1, §2

T6 sequence (P41968 whole entry): as the sequence (P41968 whole entry) above

Ki [nM]	Binder
9	B4

These binders were tested against T7, human melanocortin receptor subtype 1 (hMC1-R) (human, UniProt Q01726 1-317) (assay: [125I]-NDP-α-MSH competition, membranes).
T7 construct: whole, on cells; membranes of CHO-K1 cells
Procedure: as §1, §2

T7 sequence (Q01726 whole entry): as the sequence (Q01726 whole entry) above

Ki [nM]	Binder
49.9	B4

Each binder was assayed against T8, human melanocortin receptor subtype 4 (hMC4-R) (human, UniProt P32245 1-332) (assay: [125I]-NDP-α-MSH competition, membranes).
T8 construct: whole, on cells; membranes of CHO-K1 cells
Procedure: as §1, §2

T8 sequence (P32245 whole entry): as the sequence (P32245 whole entry) above

Ki [nM]	Binder
0.569	B4
